Paper PMC4889959 (Nucleic Acids Research, 2016)

Molecular target: the molecule itself
Assay: SEC; 2 mg of protein (20 mg/ml) on a calibrated Superdex 75 column (120 ml), 25 mM pH 8.0 Tris-HCl, 150 mM NaCl, 2 mM DTT

B1: Human SLX4BTB (residues 660–795) (domain or fragment, UniProt Q8IY92 660-795, looked up)
chain: QDKHPDRGGRTLLSLGLLVADFGAMVNNPHLSDVQFQTDSGEVLYAHKFVLYARCPLLIQYVNNEGFSAVEDGVLTQRVLLGDVSTEAARTFLHYLYTADTGLPPGLSSELSSLAHRFGVSELVHLCEQVPIATDS
stoichiometry N: 2
